From a protein production outcome set (Wang et al. 2014)

Assay: label from the status in PepcDB records

| Sequence | protein production |
| --- | --- |
| MHTDVNALFAALWQDYIKMTPSAAKIHQLLGHGAPIINDHIALRTFNIAKVNLSVLAKHFTSIGYVDSGDYKFEQKKLIAKHFEHPDPKQPKVFISELLVEEFSPEVQKSIHGLIDQVDIAATTADNFIYSGRHWDVDKATYQALLAESEYAAWVAALGYRANHFTVSINDLPEFERIEDVNQALKQAGFVLNSSGGEVKGSPEVLLEQSSTMADKVVVNFTDGDVEIPSCFYEFARRYPMANGQLYTGFVAASADKIFESTNAMM | not failed |
| MHTFTASSSLGASADALFTWHSRPGAFERLTPPWAPVRLQSFEGIEAGDRAVLRIGPGPLAVRWVAEHYGVEPGRQFCDRQVQGPFSHWEHTHRFTPADDDTGGATLTDRIEYEPPGGALGRQAAPWLEAELRRQFAYRHRITRRDLSLHQQYNPDDRSLTIAVSGASGLVGSSLVPFLTTGGHTVKRLTRSGPTGADEILWDPRTDRVEADKLEGIDAVIHLAGENVFGPWTPAKKQRIYSSRADGTRLLAEALAGLDDPPEVLVSSSAVGYYGDHGADRITEESAPRDAGFLGEVCEAWEAAAEPAAAAGIRTVQMRTGIVLTPAGGALRLMLPAFWLGLGGRVGGRHQYFPWITLDDVIGGIYHALWTDALEGPVNLTAPRPVTMQAYTDTLADVLHRPAFLNVPSSVVRTVGGEMADEMLLTSARAVPQRLQDTGYDFGASALEDGLRHVLGRTAD | failed |
| MHTISLKRILIYIVLLVTSFALLVGFTVNIVSQVAQYQESLHDQALSYSRIVAGNAASSLVFNDNANEKQRLSSLENTSFIQHVHVYKMDETSNELTFFSSYNKKGLPPIPARFAKLDKLTTPQTNDNYIEVSQPVVLDDEVIGYVYLRGSLEQARLFMWRSIGIASVVFVLTLLLCWLITLRLRKTIVTPLDSVVDVISQVARDKNYSLRLAPSKLVEFDMMAHAFNTMLDRVQQHISRQRRAEEEASQLNTELERQVTQRTQALKESNSELLKTLEQLHQYQGQLVESEKMASLGDMVAGIAHEVNTPIGLSVTASTLLQDKLTIMQEKFDEKRISTSEFERFLSDCDENLQIIYRNLGRAADLVTSFKQVAVDQSSEIDRDIHIPSFMNDVLISVKPRRLDPEKFPIRISCPEGLTVRAKAGPLNQVLINLIVNSMIHAFEGYSSGRVDISFTMVGDDKLEMVYTDNGKGVPSDINRKIFDPFVTTKRGSGGSGLGLHLVYNLVTQVLGGNIHFFSEEKNGVEFIVRFPVTLVSNA | failed |
| MHTPTAVLRPADFLAPIVAALISVLVNYGGTFVLVFQAAELAGLSAAQTTSWVWAVSIGVGVTGIALSWRYREPIITAWSTPGVAFLATVMPFTPYGEVIGAYLAAALGFVVLGLSGAFEKLVRMIPAGIAAGLLAGILLQFGINAFGGASADPLLVIALLVSYALLKRYTSRFAVVGILVIGLGLLAAQQRVDFAALHLSLAAPVFEMPRFSLHAMLGVALPLFVITLTGQYMPGMLVLRNDGFKTSANPILVATGLGSLVMAPFGAHTFNVAAITAAICTGRDAHEDPRKRYIAGLACGVFYILVGLFGVTLATLFMVLPKTFITTLAGLALLGTIGGSLASAMADARTRETALITFLATAANVTLLGVGGAFWGLVAGLAAHGLIHFRQPEPAAARPALLSPTSQDTR | failed |
| MHTSVQHAKTCLAVTSVSPIYVFGKTTFVSELIEQAGGKNCVETIQSAYPTVDVEYILRANPDVFIFNSTDQQKLFFETYPLLKQCKGYITNQLFVIDDSIMSRPGIRLPILKDSLVSILSKLEHHHHHH | failed |
| MHVLNILWVVFGIGLMLVLNLKFKINSMVALLVAALSVGMLAGMDLMSLLHTMKAGFGNTLGELAIIVVFGAVIGKLMVDSGAAHQIAHTLLARLGLRYVQLSVIIIGLIFGLAMFYEVAFIMLAPLVIVIAAEAKIPFLKLAIPAVAAATTAHSLFPPQPGPVALVNAYGADMGMVYIYGVLVTIPSVICAGLILPKFLGNLERPTPSFLKADQPVDMNNLPSFGVSILVPLIPAIIMISTTIANIWLVKDTPAWEVVNFIGSSPIAMFIAMVVAFVLFGTARGHDMQWVMNAFESAVKSIAMVILIIGAGGVLKQTIIDTGIGDTIGMLMSHGNISPYIMAWLITVLIRLATGQGVVSAMTAAGIISAAILDPATGQLVGVNPALLVLATAAGSNTLTHINDASFWLFKGYFDLSVKDTLKTWGLLELVNSVVGLIIVLIISMVA | failed |
| MHYQPKQDLLNDRIILVTGASDGIGREAAMTYARYGATVILLGRNEEKLRQVASHINEETGRQPQWFILDLLTCTSENCQQLAQRIAVNYPRLDGVLHNAGLLGDVCPMSEQNPQVWQDVMQVNVNATFMLTQALLPLLLKSDAGSLVFTSSSVGRQGRANWGAYAASKFATEGMMQVLADEYQQRLRVNCINPGGTRTAMRASAFPTEDPQKLKTPADIMPLYLWLMGDDSRRKTGMTFDAQPGRKPGISQ | failed |
| MIAAPTQLAIMPFPNIDPIALSIGPLAIHWYGIAYVAGIMLGWFYARRLARTDRLWPNDTSPISAQHLDDFILWAAGGIVLGGRIGYILFYDMAAVAANPIRAIEIWNGGMSFHGGLIGTTIAMILFARRNGIPVWSMFDIIAAVAPIGLLFGRIANFINGELWGRIADVPWAVVFPTGGPFARHPSQLYEAGLEGLVLVVLLAIAIYVFKALKTPGTVTGIFVCGYALSRIFVEFFREPDAQIGYLAGNWLTMGMVLSTPMFLLGLWAVLRARSATKSA | not failed |
| MIAITLLVVIDQVALSQTFPILTIIYALATILPAWGVLVRRLHDIGRSGWWMLISCVPLVGGIILFVFTVMDSQQGDNQFGASPKAAL | failed |
| MIALAASSLGNTPIASFNRHFRFRLHPRNPLIQAAVSPSSSSSSPTASSGFDLSSLESAINKKDSNGVKEALDKLSEEGWAKKWSSQPYLSRRTTSLRELTTLGIKNAETLAIPSVRNDAAFLFTVVGSTGFIAVLAGQLPGDWGFFVPYLVGSISLVVLAVGSVSPGLLQAAISGFSTFFPDYQERIAAHEAAHFLGTLEKFKSFDSKVAYLIGLPILGYSLDIGKEHVNLIDERLAKLIYSGKLDSKELDRLAAVAMAGLAAEGLKYDKVIGQSADLFSLQRFINRSQPKISNEQQQNLTRWAVLYSASLLKNNKTIHEALMAAMSKNASVLECIQTIETAS | failed |
| MIAQQFNRARHILRHNLVRPFYQPKFYLESGKLAGFEALLRWYDEDNQIQLPKLIINAFEDYSLASRLSEKMQLNIFKDMASWINQGLQLVPVSINAAPVEFLKDNYAELLLERLNQFEIPYHLIEIEITEHLLDDQGKNFISRALAKLKQNGIRIALDDFGTGHSSLTRLANLPVDCLKIDCDFVQRMEQEKFISALVQSVILMSNNLGIDVVAEGIESQEQLELLKQQGCEVGQGFLFSQALAPENARALLS | failed |
| MICLEKVEDIPRLQELFAQILIVHHQARSDVLKVKGSKFTDKELEGVIGDANKPVFVYEDEAGTILCHLFLIIKEVSENDGPQKPIKTLFIDDLCVEEKARGQKLGEKLYQFALDYATEQECYNATLHVWNDNQGTLDFYEHLGVKPRYTEMKTVLKLEHHHHHH | failed |
| MIDAQMSERFPARINILAVNSPGSLAEITQVISANDANIQNLSFIRTAPDFTEIMIDLEVWDLKHLNRIFSQLKKAGSVSTVRRGHGLEHHHHHH | failed |
| MIDCAIIGGGPAGLSAGLYATRGGVKNAVLFEKGMPGGQITGSSEIENYPGVKEVVSGLDFMQPWQEQCFRFGLKHEMTAVQRVSKKDSHFVILAEDGKTFEAKSVIIATGGSPKRTGIKGESEYWGKGVSTCATCDGFFYKNKEVAVLGGGDTAVEEAIYLANICKKVYLIHRRDGFRCAPITLEHAKNNDKIEFLTPYVVEEIKGDASGVSSLSIKNTATNEKRELVVPGFFIFVGYDVNNAVLKQEDNSMLCKCDEYGSIVVDFSMKTNVQGLFAAGDIRIFAPKQVVCAASDGATAALSVISYLEHH | failed |
| MIDEKFLIESNELVESSKIVMVGTNGENGYPNIKAMMRLKHDGLKKFWLSTNTSTRMVERLKKNNKICLYFVDDNKFAGLMLVGTIEILHDRASKEMLWTDGCEIYYPLGIDDPDYTALCFTAEWGNYYRHLKNITFKIDEIYNY | not failed |
| MIDIHSHIVFDVDDGPKTLEESLSLIEESYRQGVRIIVSTSHRRKGMFETPEDIIFKNFSIVKHEAEKRFEHLQILYGGELYYTSDMLEKLKLKQIPTLNNTKFALIEFSMQTSWKDIHTALSNVLMLGITPVVAHIERYNALENQKERVKEIINMGCYTQINSSHILKQKLFNDKHKRFKKRARYFLEENLVHFVASDMHNLDVRPPFLAEAYKIICRDFGKERANQLFIENAQSILKNHYI | failed |
| MIDLNEALAKDRWIGRLASHLDGFEALLDGQGYAKTTVQQKIKLLAGFSAWVERQDVPLSLLGEEDADLFLTELGLRPRRGDAWTIRQLVRYLRDTGGVPVLLPEVDTSAKGKLIDAFGEFLRKERGLSASTLTNYLPIIRGFLDEQFGGKDPGFDHLRVGDVHRFIVRRAQAGSLGRAKLAVTALRSFLRFLQQRGLLATDLAVAVPGIAGWRLAHLPKALRAEQVERLLASCDRRTPAGRRDYAVLMLLARLGLRGGEVSALTLDDLDWDCGEIVVHGKGQRLARLPLPADVGAALVDYLRQDRPACSTRRVFIRTRAPRRGFVSQSTICCIVRRALKRAGLTPAFKGAHLLRHSLATDLLRRGASLVEIGQLLRHSQPNTTQIYAKVDIAALRAIALPWPGVAS | failed |
| MIDSQFQFTVLTPTYNRAVTLHRVFQSLQRQTCRDFEWVVVDDGSTDNTHEVVRAWQAQADFPIRYVWQHNQHKKTAFNRGVREARGMLVVGLDSDDEIPPDALAILKDAWEGIPADRRETYVAVTGLCARPDGSIVGDRFPQDVFDSTAVDMYFRYRVQGEKFGAMRADVLRRFPFPEDVAGFVPESLVWWAISRAGYLSRFINRVVRVYHDTPGGLSQGGVSLSSNIQGLYLLAWDMLQHHLDWFRYRPREFIMAAARYTRFRLHLDNSGLPTAVQAYRLTQPSARLLVLLMWPLGYLLYRRDRRRGVA | failed |
| MIDTFERTGPLMEASSYPAWAQQLINDCSPAKARVVEHELYQQMRDAKLSPQIMRQYLIGGWPVVEQFAVYMAKNLTKTRFGRHPGEDMARRWLMRNIRVELNHADYWVNWCAAHDVTLEDLHDQRVAPELHALSHWCWQTSSSDSLAVAMAATNYAIEGATGEWSAVVCSTGVYAEAFAEETRKKSMKWLKMHAQYDDAHPWEALEIICTLVGNKPSLQLQAELRQAVTKSYDYMYLFLERCIQLDKVKSPRGRVAALEM | not failed |
| MIDVLVQLKSEELILKQRVITAVVALIIFIPIVFLGGTLIEIAALALAVVAMSEVLIMKRILLVTPEAIISILGTLFLVAPKSWMHDLPSQINTPFVSLIFAIALMVRVVFSKNRFNFDDAGVLTLTMLYIGFGFNMFVQARTVGLGMLMYLLLTVWSTDSGAYLVGRKIGKTKLAPQISPNKTWEGSIGGTIVAVIVGIIFSVTGLIHYGILATILMTLFLSIAGQLGDLVESSLKRYYGVKDSGRILPGHGGILDRFDSLLLVLPMAYLLGLL | failed |
| MIEEEAIVTQVEEHAIWVEKFRKSACGSCAGGCSTSLVARLLGGKPLRLRIATEARVAPGDRVIIGVEEGALLAGSFRMYLFPLFSLIGGALLGKLLAAQGLSATAEAGSIAGGLVGLGLTLVLLKYCPSLQRQNLHPVFIRRISR | failed |
| MIEIKQVKTQDEVNYTFVEKLMHTAFPQEERRDTVQQREYSDNNPRFCNNIILENGNSIGMISYWTMGDFYYIEHFAIDPSLRNGGYGKRVLEMIKKQLKGPIVLEVEEPNDEMSTRRIHFYKRLEFTLHKKPYIQPPYRKGDSGLPMLLMTYGDIDMESDFEKVKKTLYKEVYGQEI | not failed |
